US6582902B1, “Method for deriving epitopes” (priority 1992, dated 2003)

Tested on: g10-reactive antibodies (anti-g10 serum)
Assay: Competition for immunoprecipitation of [35S] g10-U1-A fusion protein by anti-g10 serum
Type: binding, rabbit
From the text: Panel A: Western blot of E. coli extracts containing various U1-A protein constructs. All extracts were produced from induced E. coli cells containing recombinant pET-8c T7 expression vectors in accordance with known techniques. See F. Studier et al., Meth. Enzym. 185, 60-89 (1991). U1-A cDNA was cloned into pET-8c either attached or not attached to the g10 peptide. Lanes: 1, 5 and 9: the pET-8c vector alone; 2, 6 and 10: g10-U1-A protein; 3, 7 and 11: U1-A protein; 4, 8 and 12: total HeLa cell extracts. Lanes 1-4 were probed with pre-immune rabbit serum; lanes 5-8 were probed with anti-g10 serum; and lanes 9-12 were probed with a U1/U2-specific autoimmune serum (patient). EW reacts with U1 RNA, U1-70K (70 kDa), U1-A (31 kDa) and U2-A′ (28.4 kDa) (lane 12). Panel B: Immunoprecipitation and competition analysis of [^35S]-methionine-labeled U1-A and g10-U1-A proteins expressed by in vitro transcription, and subsequent translation in rabbit reticulocyte lysates. Lanes: 1 and 2 show the amount of U1-A and g10-U1-A translation product, respectively, added to each immunoprecipitation reaction; 3: blank; 4 and 5: U1-A and g10-U1-A precipitated with serum EW (reactive with U1-A); 6 and 7: U1-A and g10-U1-A, respectively, precipitated with anti-g10 serum. In lanes 8-12, g10-U1-A was precipitated with anti-g10 serum in the presence of varying amounts of competitors as follows: lanes 8-11 contained the g10 peptide at concentrations of 27.8, 83.3, 250 and 750 nM, respectively; lane 12 contained a control peptide (sequence GKSRGFAFVEFK-amide) (SEQ ID NO:4) at a concentration of 25 mM. The faint lower band in all lanes represents either a degradation product or a premature translation termination product and is seen consistently in U1-A translations.
[^32P] labeled in vitro transcribed D10 RNA or [^35S] labeled in vitro translated g10 fusion protein (g10-U1A) was immunoprecipitated by the anti-g10 serum in the presence of various competitors. D10 RNA and g10 fusion protein bound in the immunoprecipitations were analyzed using denaturing polyacrylamide gels and autoradiography. […]

B1: D10 RNA: single RNA species selected from the degenerate pool by anti-g10 serum (SEQ ID NO:3); U1 stem II with loop UGGUGGAGCA (nucleic acid)
chain: GGGCCACCAACGACAUUGGGCGAGGCUUAUCCUGGUGGAGCAGGAUGUGCUGACCCCGUUGAUAUAAAUAGUGCCCAUGGAUC
modifications: chemistry not given here
notes: U1 stem II with loop UGGUGGAGCA
competition with g10 fusion protein for binding to the antibody (FIG. 5C, 0.7 nM competitor RNA): able to compete
competition with [35S] labeled g10 fusion protein, increasing amounts of competitor (FIG. 5D, 0.0175-1.05 nM D10 RNA): able to progressively compete
